Legend:
[1] = target: 017-mut2 peptide (…)/HLA-A*02:01 complex on T2 cells (human); experiment: flow cytometry, HLA-A2 staining of T2 pulsed with peptide A2 (T2 stabilisation)
[2] = target: HLA-A2 on MAC-1 and MAC-2A cells (Homo sapiens), A*02:0; experiment: flow cytometry on MAC-1 cells, HLA-A2 staining; isotype control 93.6
[3] = target: 017-mut8 peptide (…)/HLA-A*02:01 complex on T2 cells (human); experiment: flow cytometry, HLA-A2 staining of T2 pulsed with peptide A8 (T2 stabilisation)
[4] = target: 017-mut1 peptide (…)/HLA-A*02:01 complex on T2 cells (human); experiment: flow cytometry, HLA-A2 staining of T2 pulsed with peptide A1 (T2 stabilisation)
[5] = target: 017-mut5 peptide (…)/HLA-A*02:01 complex on T2 cells (human); experiment: flow cytometry, HLA-A2 staining of T2 pulsed with peptide A5 (T2 stabilisation)
[6] = target: T2+FoxP7-G10 (Homo sapiens), A*02:0; experiment: flow cytometry, HLA-A2 staining of T2 pulsed with peptide G10 (T2 stabilisation)
[7] = target: Foxp3-7 peptide/HLA-A*02:01 complex on the cell surface (human); experiment: flow cytometry, HLA-A2 staining of T2 pulsed with the wild type Foxp3-7 peptide (T2 stabilisation)
[8] = target: 017-mut9 peptide (…)/HLA-A*02:01 complex on T2 cells (human); experiment: flow cytometry, HLA-A2 staining of T2 pulsed with peptide A9 (T2 stabilisation)
[9] = target: HLA-A2 on MAC-1 and MAC-2A cells (Homo sapiens), A*02:0; experiment: flow cytometry on MAC-2A cells, HLA-A2 staining; isotype control 86.2
[10] = target: 017-mut7 peptide (…)/HLA-A*02:01 complex on T2 cells (human); experiment: flow cytometry, HLA-A2 staining of T2 pulsed with peptide A7 (T2 stabilisation)
[11] = target: 017-mut3 peptide (…)/HLA-A*02:01 complex on T2 cells (human); experiment: flow cytometry, HLA-A2 staining of T2 pulsed with peptide A3 (T2 stabilisation)
[12] = target: HLA-A*02:01 on T2 cells alone (no peptide added) (human); experiment: flow cytometry, HLA-A2 staining of T2 without peptide
[13] = target: HLA-A2 on MAC-1 and MAC-2A cells (Homo sapiens), A*02:0; experiment: flow cytometry on MAC-1 cells, isotype control of BB7
[14] = target: HLA-A2 on MAC-1 and MAC-2A cells (Homo sapiens), A*02:0; experiment: flow cytometry on MAC-2A cells, isotype control of BB7

Median:FITC-A [1] | Median:FITC-A [2] | Median:FITC-A [3] | Median:FITC-A [4] | Median:FITC-A [5] | Median:FITC-A [6] | Median:FITC-A [7] | Median:FITC-A [8] | Median:FITC-A [9] | Median:FITC-A [10] | Median:FITC-A [11] | Median:FITC-A [12] | Median:FITC-A [13] | Median:FITC-A [14] | Substance
11200 | 35000 | 16500 | 29600 | 10400 | 34100 | 18000 | 10400 | 44000 | 18600 | 35100 | 6940 | – | – | BB7 (antibody)
– | – | – | – | – | – | – | – | – | – | – | – | 93.6 | 86.2 | mIso (antibody)

Source: patent publication US20190284262A1
